Laboratory results from patent publication US20260022160A1 (AFFYXELL THERAPEUTICS, published 2026).

Tests used:
human CD40L [1] = biological target: T1, human CD40L (human, UniProt P29965 113-261, limits assumed); assay: direct binding ELISA on plate-coated hCD40L (5 ug/ml), detection biotinylated anti-cystatin A antibody + polyHRP-streptavidin, OD 450-630 nm
T1 construct: also called hCD40L; huCD40L
T1 sequence (looked up): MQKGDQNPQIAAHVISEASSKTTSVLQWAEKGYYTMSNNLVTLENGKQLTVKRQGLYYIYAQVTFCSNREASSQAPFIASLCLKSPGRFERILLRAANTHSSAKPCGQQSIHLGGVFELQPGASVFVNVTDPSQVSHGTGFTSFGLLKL
Description: Plates were washed 2 times with 150 μl of washing buffer (PBS, Tween 20 0.1%) with a plate washer and saturated with Casein 5% (Sigma) in PBS for 90 minutes at room temperature (25±1° C.). For binding, each DAW01 clone and rhCD40 Fc were added to the plate, starting from 1 μM, 1 in 3 and 300 nM, 1 in 3 respectively. Plates were washed 3 times as described previously. […] Then, cystatin A biotinylated polyclonal antibody (BAF1407) was diluted to a concentration of 0.05 μg/ml in dilution buffer (PBS, 1% casein, 0.01% Tween 20) and the plate was incubated for 90 minutes at room temperature (25±1° C.). PolyHRP-streptavidin was then diluted in dilution buffer and the plates were incubated for 90 minutes at room temperature (25±1° C.). The plates were then washed 3 times as described previously, and the substrate (TMB, Pierce Thermo-Scientific) was added to the plates for 10 minutes. The reaction was stopped using an acidic solution, and plates were read at 450-630 nm.

human CD40L [2] = biological target: T1, human CD40L; assay: competitive ELISA: hCD40L (1 nM) premixed with the binder and added to plate-coated rhCD40 Fc; bound hCD40L detected with biotinylated anti-hCD40L polyclonal antibody
Description: To evaluate the avidity of the different formats, a CD40L competitive ELISA was performed. Briefly, the plates were coated with rhCD40 Fc at 1 μg/ml and incubated overnight at 4° C. The plates were washed twice with 150 μl of washing buffer (PBS, Tween 20 0.1%) with a plate washer and saturated with Casein 5% (Sigma) in PBS for 90 minutes at room temperature (25±1° C.). […] The resulting solution was then mixed and added to the plates. The plates were washed 3 times as described previously. […] The plates were incubated for 90 minutes at room temperature (25±1° C.). The plates were then washed. PolyHRP-Streptavidin was then diluted in dilution buffer and added to the plates. The plates were incubated an additional 90 minutes at room temperature (25±1° C.). Plates were washed 3 times as described previously and the substrate (TMB, Pierce Thermo-Scientific) was added in the plate for 10 minutes. The reaction was stopped using an acidic solution and the plates were read at 450-630 nm and the resulting percent inhibition was calculated.

human CD40L [3] = biological target: T1, human CD40L; assay: cell-based or functional assay
human CD40L [4] = biological target: T1, human CD40L; assay: cell-based or functional assay; remark: listed apart in the source
human CD40L [5] = biological target: T1, human CD40L; assay: cell-based or functional assay; remark: listed apart in the source
[6] = biological target: T2, human CD40L expressed on HEK293 cells (human, UniProt P29965 1-261); assay: flow cytometry, clone at 1 uM on hCD40L-HEK293 cells (hatched), HEK-293 negative cells as control (open), detection anti-Cystatin A + A488 anti-goat
T2 construct: whole, on cells; also called hCD40L-HEK293 cells; hCD40L-HEK-293 cells (Crown Biosciences, C2041)
T2 sequence (looked up): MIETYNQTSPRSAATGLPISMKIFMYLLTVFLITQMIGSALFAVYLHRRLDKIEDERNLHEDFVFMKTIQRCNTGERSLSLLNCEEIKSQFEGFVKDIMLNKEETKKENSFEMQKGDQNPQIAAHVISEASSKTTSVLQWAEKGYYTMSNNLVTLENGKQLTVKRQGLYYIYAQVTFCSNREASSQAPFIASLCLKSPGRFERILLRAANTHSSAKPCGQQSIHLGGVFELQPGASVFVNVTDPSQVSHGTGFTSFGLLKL
Description: The cells were resuspended in PBS and 200,000 cells per well were dispatched in a round bottom 96 well plate. Cells were washed with PBS. The stefin A protein variant and controls were diluted in staining buffer containing 1% BSA, 0.01% Sodium Azide (NaN3), 2 mM EDTA in DPBS in duplicate and added on cells for staining for approximately 60 min at 4±1° c. Cells were washed and the secondary anti-Cystatin A (R&D, AF1407) was diluted 0.2 mg/ml in staining buffer and added on cells for staining for approximately 45 min at 4±1° c. Cells were washed again and the detection antibody A488 anti-goat (ThermoFisher, A21467) was diluted 1:500 in staining buffer and added to the cells for staining (approximately 30 min at 4±1° C.). Finally, the cells were washed and live and dead cells were stained using L/D stain Zombie Yellow (Biolegend, 423103) diluted in staining buffer for 10 min at 4±1° C. Cells were washed again and fixation buffer (R&D) was added to each well for 10 min at 4±1° C. then PBS with EDTA (Lonza) was added prior reading the plate on the flow cytometer (Guava 12 HT, Millipore). Dead cells were excluded, and the fluorescent green channel (488 nm/525/30) was acquired. Results were analyzed using Incyte and data were plotted using GraphPad.

human CD40L [7] = biological target: T1, human CD40L; assay: BIACORE (SPR) on hCD40L, kinetic fit; immobilised partner not stated

B1: stefin A protein variant clone 233 (designed binder)
chain: MIPGGLSEAKPATPEIQEIVDKVKPQLEEKTGETYGKLEAVQYKTQVVLQDQWPWRDGTNYYIKVRAGDNKYMHLKVFKSLTYGKKWYSWEDLVLTGYQVDKNKDDELTGF
Binder B1 has an EC50 (human CD40L [1]) of 3.07 nM.

B2: clone-230 DT (trimer with a rigid linker) (designed binder)
chain: IPGGLSEAKPATPEIQEIVDKVKPQLEEKTGETYGKLEAVQYKTQVVHYYVHYNDQGTNYYIKVRAGDNKYMHLKVFKSLWGENLFAKWEDLVLTGYQVDKNKDDELTGFAEAAAKEAAAKEAAAKEAAAKEAAAKEAAAKMIPGGLSEAKPATPEIQEIVDKVKPQLEEKTGETYGKLEAVQYKTQVVHYYVHYNDQGTNYYIKVRAGDNKYMHLKVFKSLWGENLFAKWEDLVLTGYQVDKNKDDELTGFAEAAAKEAAAKEAAAKEAAAKEAAAKEAAAKMIPGGLSEAKPATPEIQEIVDKVKPQLEEKTGETYGKLEAVQYKTQVVHYYVHYNDQGTNYYIKVRAGDNKYMHLKVFKSLWGENLFAKWEDLVLTGYQVDKNKDDELTGF
For B2, the “IC50 (read off the curve)” value (human CD40L [2]) was about 4 nM and the “IC50 (read off the curve)” value (human CD40L [3]) was about 2 nM.

B3: stefin A protein variant clone 246 (designed binder)
chain: MIPGGLSEAKPATPEIQEIVDKVKPQLEEKTGETYGKLEAVQYKTQVVHIPALKVHAGTNYYIKVRAGDNKYMHLKVFKSLPYWYRHDQEEDLVLTGYQVDKNKDDELTGF
Binder B3 has an EC50 (human CD40L [1]) of 17.3 nM.

B4: stefin A protein variant clone 227 (designed binder)
chain: MIPGGLSEAKPATPEIQEIVDKVKPQLEEKTGETYGKLEAVQYKTQVVHDVFYDQKAGTNYYIKVRAGDNKYMHLKVFKSLKWWYRIGNPEDLVLTGYQVDKNKDDELTGF
B4 gave an EC50 (human CD40L [1]) of 12.4 nM.

B5: stefin A protein variant clone 230 (designed binder)
chain: MIPGGLSEAKPATPEIQEIVDKVKPQLEEKTGETYGKLEAVQYKTQVVHYYVHYNDQGTNYYIKVRAGDNKYMHLKVFKSLWGENLFAKWEDLVLTGYQVDKNKDDELTGF
B5 was tested, and the “EC50 (HEK-Blue cell-based assay, % inhibition)” value (human CD40L [4]) was 608 nM, the “EC50 (HEK-Blue CD40 reporter cells, SEAP, OD 640 nm, hCD40L 0.8 nM)” value (human CD40L [5]) was 11.6 nM and the “% Positive” value [6] was 98.8%. It also gave an MFI [6] of 8990 MFI, an EC50 (human CD40L [1]) of 0.67 nM and a Kd (human CD40L [7]) of 8.15 nM. The koff (human CD40L [7]) was 0.000975 s⁻¹ and the kon (human CD40L [7]) was 120000 M⁻¹ s⁻¹.

B6: stefin A protein variant clone 270 (designed binder)
chain: MIPGGLSEAKPATPEIQEIVDKVKPQLEEKTGETYGKLEAVQYKTQVVLDGLYHVNSGTNYYIKVRAGDNKYMHLKVFKSLFYYYRSEPTEDLVLTGYQVDKNKDDELTGF
For B6, the “% Positive” value [6] was 98.4% and the MFI [6] was 8540 MFI.

B7: stefin A protein variant clone 244 (designed binder)
chain: MIPGGLSEAKPATPEIQEIVDKVKPQLEEKTGETYGKLEAVQYKTQVVRENWYGEFAGTNYYIKVRAGDNKYMHLKVFKSLLYIYRHPNYEDLVLTGYQVDKNKDDELTGF
B7 was tested, and the EC50 (human CD40L [1]) was 45.6 nM.

B8: stefin A protein variant clone 243 (designed binder)
chain: MIPGGLSEAKPATPEIQEIVDKVKPQLEEKTGETYGKLEAVQYKTQVVFTYQISYTVGTNYYIKVRAGDNKYMHLKVFKSLRWRYPARKPEDLVLTGYQVDKNKDDELTGF
In the case of B8, the “% Positive” value [6] is reported as 98.3%, the MFI [6] is reported as 4400 MFI and the EC50 (human CD40L [1]) is reported as 57.5 nM.

B9: stefin A protein variant clone 229 (designed binder)
chain: MIPGGLSEAKPATPEIQEIVDKVKPQLEEKTGETYGKLEAVQYKTQVVQYKIITWWSGTNYYIKVRAGDNKYMHLKVFKSLVYKNKRGGHEDLVLTGYQVDKNKDDELTGF
B9 gave an EC50 (human CD40L [1]) of 15.3 nM.

B10: stefin A protein variant clone 231 (designed binder)
chain: MIPGGLSEAKPATPEIQEIVDKVKPQLEEKTGETYGKLEAVQYKTQVVYYQIITWWQGTNYYIKVRAGDNKYMHLKVFKSLGIRKKQQQREDLVLTGYQVDKNKDDELTGF
B10 was tested, and the EC50 (human CD40L [1]) was 6.12 nM.

B11: stefin A protein variant clone 248 (designed binder)
chain: MIPGGLSEAKPATPEIQEIVDKVKPQLEEKTGETYGKLEAVQYKTQVVYDELYHEKAGTNYYIKVRAGDNKYMHLKVFKSLEYKFRNLEEDLVLTGYQVDKNKDDELTGF
For B11, the “% Positive” value [6] was 98.1% and the MFI [6] was 9620 MFI.

B12: stefin A protein variant clone 261 (designed binder)
chain: MIPGGLSEAKPATPEIQEIVDKVKPQLEEKTGETYGKLEAVQYKTQVVVDQVWSENAGTNYYIKVRAGDNKYMHLKVFKSLPYLWRKHAVEDLVLTGYQVDKNKDDELTGF
With B12 the “% Positive” value [6] was 97.9%, the MFI [6] was 7050 MFI and the EC50 (human CD40L [1]) was 26.4 nM.

B13: clone-230 DS (tetramer with a rigid linker) (designed binder)
chain: IPGGLSEAKPATPEIQEIVDKVKPQLEEKTGETYGKLEAVQYKTQVVHYYVHYNDQGTNYYIKVRAGDNKYMHLKVFKSLWGENLFAKWEDLVLTGYQVDKNKDDELTGFAEAAAKEAAAKEAAAKEAAAKEAAAKEAAAKMIPGGLSEAKPATPEIQEIVDKVKPQLEEKTGETYGKLEAVQYKTQVVHYYVHYNDQGTNYYIKVRAGDNKYMHLKVFKSLWGENLFAKWEDLVLTGYQVDKNKDDELTGFAEAAAKEAAAKEAAAKEAAAKEAAAKEAAAKMIPGGLSEAKPATPEIQEIVDKVKPQLEEKTGETYGKLEAVQYKTQVVHYYVHYNDQGTNYYIKVRAGDNKYMHLKVFKSLWGENLFAKWEDLVLTGYQVDKNKDDELTGFAEAAAKEAAAKEAAAKEAAAKEAAAKEAAAKMIPGGLSEAKPATPEIQEIVDKVKPQLEEKTGETYGKLEAVQYKTQVVHYYVHYNDQGTNYYIKVRAGDNKYMHLKVFKSLWGENLFAKWEDLVLTGYQVDKNKDDELTGF
B13 was tested, and the “IC50 (read off the curve)” value (human CD40L [2]) was about 2 nM and the “IC50 (read off the curve)” value (human CD40L [3]) was about 0.6 nM.

B14: stefin A protein variant clone 247 (designed binder)
chain: MIPGGLSEAKPATPEIQEIVDKVKPQLEEKTGETYGKLEAVQYKTQVVHHAYAAVYVGTNYYIKVRAGDNKYMHLKVFKSLPYWYRKYPDEDLVLTGYQVDKNKDDELTGF
For B14, the “EC50 (HEK-Blue cell-based assay, % inhibition)” value (human CD40L [4]) was 1190 nM, the “EC50 (HEK-Blue CD40 reporter cells, SEAP, OD 640 nm, hCD40L 0.8 nM)” value (human CD40L [5]) was 101 nM and the “% Positive” value [6] was 98.8%. The MFI [6] was 9890 MFI, the Kd (human CD40L [7]) was 3.74 nM and the koff (human CD40L [7]) was 0.00207 s⁻¹. The kon (human CD40L [7]) was 553000 M⁻¹ s⁻¹.
